What was measured:
[1] = target: T1, IFNAR1 (human, UniProt P17181 28-557); assay: cell-based or functional assay
T1 sequence (looked up): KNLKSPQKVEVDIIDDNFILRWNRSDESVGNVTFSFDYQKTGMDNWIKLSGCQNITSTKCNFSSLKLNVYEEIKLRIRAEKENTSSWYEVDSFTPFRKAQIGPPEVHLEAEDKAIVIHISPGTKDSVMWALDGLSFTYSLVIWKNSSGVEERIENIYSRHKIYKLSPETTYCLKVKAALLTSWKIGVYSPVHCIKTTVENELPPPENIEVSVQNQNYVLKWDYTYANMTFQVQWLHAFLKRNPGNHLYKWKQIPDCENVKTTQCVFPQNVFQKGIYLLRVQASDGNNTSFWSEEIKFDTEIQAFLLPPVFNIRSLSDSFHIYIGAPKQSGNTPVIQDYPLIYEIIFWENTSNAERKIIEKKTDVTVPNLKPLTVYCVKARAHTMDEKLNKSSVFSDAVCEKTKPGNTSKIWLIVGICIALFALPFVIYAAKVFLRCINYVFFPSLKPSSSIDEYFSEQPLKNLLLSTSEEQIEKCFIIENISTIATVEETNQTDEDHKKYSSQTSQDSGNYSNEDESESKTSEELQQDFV

[2] = target: T2, recombinant human BAFF (R&D cat: 7537-BF-025/CF) (human, UniProt Q9Y275 134-285); assay: cell-based or functional assay
[3] = target: T3, recombinant human APRIL (R&D cat: 5860-AP-010/CF) (human, UniProt O75888 105-250, limits assumed); assay: cell-based or functional assay
T3 sequence (looked up): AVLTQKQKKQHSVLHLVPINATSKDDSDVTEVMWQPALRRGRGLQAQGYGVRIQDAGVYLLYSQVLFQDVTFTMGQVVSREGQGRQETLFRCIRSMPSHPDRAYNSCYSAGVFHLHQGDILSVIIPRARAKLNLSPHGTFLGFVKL

[4] = target: T2, recombinant human BAFF (R&D cat: …); assay: cell-based or functional assay; remark: listed apart in the source
[5] = target: T1, IFNAR1; assay: cell-based or functional assay; remark: listed apart in the source
[6] = target: T4, APRIL (Acro Biosystems, Cat: APL-H52D1) (UniProt O75888 115-250, limits assumed); assay: ELISA, APRIL coated at 1 ug/mL, anti-human Fc-HRP, OD450
T4 construct: also called ARPIL
T4 sequence (looked up): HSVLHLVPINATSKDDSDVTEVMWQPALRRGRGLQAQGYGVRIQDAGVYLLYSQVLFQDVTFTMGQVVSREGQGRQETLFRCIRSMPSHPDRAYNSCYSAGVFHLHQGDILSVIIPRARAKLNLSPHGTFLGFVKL
Experimental: The capabilities of fusion proteins B606401, B637302, B746201, and B805201 to bind to BAFF and APRIL were assessed by ELISA as follows:
BAFF (PeproTech, Cat: 310-13) or ARPIL (Acro Biosystems, Cat: APL-H52D1) was diluted to 1 μg/mL with PBS, and a 96-well plate was coated with the dilution overnight at 4° C. The plate was washed with PBST and blocked with Blocking Buffer (PBST containing 1% BSA) at 37° C. for 1 h. The plate was tapped. The test antibodies were diluted with Blocking Buffer. Incubation was performed at 37° C. for 1.5 h. The plate was washed with PBST. An HRP-mouse anti-human Fc antibody (GenScript, Cat: A01854-200) was diluted with Blocking Buffer. Incubation was performed at 37° C. for 40 min. The plate was washed with PBST. 100 μL of TMB substrate solution (Biopanda, Cat: TMB-S-003) was added, and color development was performed at 37° C. for 3 min. 100 μL of ELISA stop solution (Solarbio, Cat: C1058) was added. OD450 was measured.

[7] = target: T3, recombinant human APRIL (R&D cat: …); assay: cell-based or functional assay; remark: listed apart in the source

T2 sequence (Q9Y275 134-285 limits assumed): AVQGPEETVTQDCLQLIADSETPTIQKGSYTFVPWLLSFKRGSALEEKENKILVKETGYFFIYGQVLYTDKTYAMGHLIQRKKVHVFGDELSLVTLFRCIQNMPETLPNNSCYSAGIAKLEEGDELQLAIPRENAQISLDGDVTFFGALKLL

B1: B637302 (other)
heavy: EVQLVQSGAEVKKPGESLKISCKGSGYIFTNYWIAWVRQMPGKGLESMGIIYPGDSDIRYSPSFQGQVTISADKSITTAYLQWSSLKASDTAMYYCARHDIEGFDYWGRGTLVTVSSASTKGPSVFPLAPSSKSTSGGTAALGCLVKDYFPEPVTVSWNSGALTSGVHTFPAVLQSSGLYSLSSVVTVPSSSLGTQTYICNVNHKPSNTKVDKRVEPKSCDKTHTCPPCPAPEFEGGPSVFLFPPKPKDTLMISRTPEVTCVVVDVSHEDPEVKFNWYVDGVEVHNAKTKPREEQYNSTYRVVSVLTVLHQDWLNGKEYKCKVSNKALPASIEKTISKAKGQPREPQVYTLPPSRDELTKNQVSLTCLVKGFYPSDIAVEWESNGQPENNYKTTPPVLDSDGSFFLYSKLTVDKSRWQQGNVFSCSVMHEALHNHYTQKSLSLSPGK
light: EIVLTQSPGTLSLSPGERATLSCRASQSVSSSFFAWYQQKPGQAPRLLIYGASSRATGIPDRLSGSGSGTDFTLTITRLEPEDFAVYYCQQYDSSAITFGQGTRLEIKRTVAAPSVFIFPPSDEQLKSGTASVVCLLNNFYPREAKVQWKVDNALQSGNSQESVTEQDSKDSTYSLSSTLTLSKADYEKHKVYACEVTHQGLSSPVTKSFNRGECGGGGSGGGGSMLQMAGQCSQNEYFDSLLHACIPCQLRCSSNTPPLTCQRYCSTSCREEQGEFYDHLLRDCISCASICGQHPKQCAAFCE
notes: Fusion protein of anifrolumab, TACI-19-16 and BCMA-ECD-2 (C-terminus of the light chain)
IC50 (nM), inhibition of the activity of type I interferons (IFN-beta, HEK-Blue IFN-alpha/beta reporter cells) [1]: 1.59 nM | Flow cytometry proliferating B cell proportion (%), mean value, BAFF-induced, drug at 10 nM (IgG1: 40.15) [2]: 23.8% | Flow cytometry proliferating B cell proportion (%), mean value, BAFF-induced, drug at 100 nM (IgG1: 40.60) [2]: 22.2% | Flow cytometry proliferating B cell proportion (%), mean value, BAFF-induced, drug at 1000 nM (IgG1: 33.97) [2]: 10.9% | CD27+ CD38+ plasma cell count, mean value, BAFF + APRIL-induced (both ligands together), drug at 10 nM (IgG1: 2687) [3]: 563 cells | CD27+ CD38+ plasma cell count, mean value, BAFF + APRIL-induced (both ligands together), drug at 100 nM (IgG1: 2496) [3]: 482 cells | CD27+ CD38+ plasma cell count, mean value, BAFF + APRIL-induced (both ligands together), drug at 1000 nM (IgG1: 2279) [3]: 137 cells | CD27+ CD38+ plasma cell count, mean value, BAFF + APRIL-induced (both ligands together), drug at 100 nM (IgG1: 2496) [4]: 482 cells | CD27+ CD38+ plasma cell count, mean value, BAFF + APRIL-induced (both ligands together), drug at 1000 nM (IgG1: 2279) [4]: 137 cells | IC50, inhibition of IFN-alpha-induced in vitro differentiation of B cells into plasma cells (CD27+ CD38+) [5]: 10.8 nM | EC50 [6]: 0.0819 nM | Emax [6]: 2.9 | Flow cytometry proliferating B cell proportion (%), mean value, APRIL-induced, drug at 4.12 nM (IgG1: 55.30) [7]: 50.6% | Flow cytometry proliferating B cell proportion (%), mean value, APRIL-induced, drug at 12.35 nM (IgG1: 54.80) [7]: 50.7% | Flow cytometry proliferating B cell proportion (%), mean value, APRIL-induced, drug at 37.04 nM (IgG1: 56.63) [7]: 53.6% | Flow cytometry proliferating B cell proportion (%), mean value, APRIL-induced, drug at 111.11 nM (IgG1: 55.83) [7]: 51.5% | Flow cytometry proliferating B cell proportion (%), mean value, APRIL-induced, drug at 333.33 nM (IgG1: 56.27) [7]: 48% | Flow cytometry proliferating B cell proportion (%), mean value, APRIL-induced, drug at 1000.00 nM (IgG1: 53.27) [7]: 33.6%

B2: B606401 (other)
heavy: EVQLVQSGAEVKKPGESLKISCKGSGYIFTNYWIAWVRQMPGKGLESMGIIYPGDSDIRYSPSFQGQVTISADKSITTAYLQWSSLKASDTAMYYCARHDIEGFDYWGRGTLVTVSSASTKGPSVFPLAPSSKSTSGGTAALGCLVKDYFPEPVTVSWNSGALTSGVHTFPAVLQSSGLYSLSSVVTVPSSSLGTQTYICNVNHKPSNTKVDKRVEPKSCDKTHTCPPCPAPEFEGGPSVFLFPPKPKDTLMISRTPEVTCVVVDVSHEDPEVKFNWYVDGVEVHNAKTKPREEQYNSTYRVVSVLTVLHQDWLNGKEYKCKVSNKALPASIEKTISKAKGQPREPQVYTLPPSRDELTKNQVSLTCLVKGFYPSDIAVEWESNGQPENNYKTTPPVLDSDGSFFLYSKLTVDKSRWQQGNVFSCSVMHEALHNHYTQKSLSLSPGK
light: EIVLTQSPGTLSLSPGERATLSCRASQSVSSSFFAWYQQKPGQAPRLLIYGASSRATGIPDRLSGSGSGTDFTLTITRLEPEDFAVYYCQQYDSSAITFGQGTRLEIKRTVAAPSVFIFPPSDEQLKSGTASVVCLLNNFYPREAKVQWKVDNALQSGNSQESVTEQDSKDSTYSLSSTLTLSKADYEKHKVYACEVTHQGLSSPVTKSFNRGECGGGGSGGGGSSTSCREEQGEFYDHLLRDCISCASICGQHPKQCAAFCE
notes: Fusion protein of anifrolumab and TACI-19-16 (C-terminus of the light chain)
IC50 (nM), inhibition of the activity of type I interferons (IFN-beta, HEK-Blue IFN-alpha/beta reporter cells) [1]: 1.94 nM | Flow cytometry proliferating B cell proportion (%), mean value, BAFF-induced, drug at 10 nM (IgG1: 40.15) [2]: 28.1% | Flow cytometry proliferating B cell proportion (%), mean value, BAFF-induced, drug at 100 nM (IgG1: 40.60) [2]: 25.3% | Flow cytometry proliferating B cell proportion (%), mean value, BAFF-induced, drug at 1000 nM (IgG1: 33.97) [2]: 17.9% | CD27+ CD38+ plasma cell count, mean value, BAFF + APRIL-induced (both ligands together), drug at 10 nM (IgG1: 2687) [3]: 654 cells | CD27+ CD38+ plasma cell count, mean value, BAFF + APRIL-induced (both ligands together), drug at 100 nM (IgG1: 2496) [3]: 549 cells | CD27+ CD38+ plasma cell count, mean value, BAFF + APRIL-induced (both ligands together), drug at 1000 nM (IgG1: 2279) [3]: 426 cells | CD27+ CD38+ plasma cell count, mean value, BAFF + APRIL-induced (both ligands together), drug at 100 nM (IgG1: 2496) [4]: 549 cells | CD27+ CD38+ plasma cell count, mean value, BAFF + APRIL-induced (both ligands together), drug at 1000 nM (IgG1: 2279) [4]: 426 cells | IC50, inhibition of IFN-alpha-induced in vitro differentiation of B cells into plasma cells (CD27+ CD38+) [5]: 17.4 nM | EC50 [6]: 0.607 nM | Emax [6]: 2.81 | Flow cytometry proliferating B cell proportion (%), mean value, APRIL-induced, drug at 4.12 nM (IgG1: 55.30) [7]: 52% | Flow cytometry proliferating B cell proportion (%), mean value, APRIL-induced, drug at 12.35 nM (IgG1: 54.80) [7]: 52.9% | Flow cytometry proliferating B cell proportion (%), mean value, APRIL-induced, drug at 37.04 nM (IgG1: 56.63) [7]: 53.6% | Flow cytometry proliferating B cell proportion (%), mean value, APRIL-induced, drug at 111.11 nM (IgG1: 55.83) [7]: 53.1% | Flow cytometry proliferating B cell proportion (%), mean value, APRIL-induced, drug at 333.33 nM (IgG1: 56.27) [7]: 50.6% | Flow cytometry proliferating B cell proportion (%), mean value, APRIL-induced, drug at 1000.00 nM (IgG1: 53.27) [7]: 40.3%

Source: patent US20260056186A1 (JIANGSU HENGRUI PHARMACEUTICALS, published 2026)
